Square brackets hold non-standard residues; d marks the D form. GABA = NCCCC(=O)O

The target in test [1] is T1, BC2T R3Y (human).
T1 construct: position 3 library (BC2TR3X), row Y
T1 peptide: Ac-PDYKAAVSHWQQ-NH2
Kind of test: library pulldown, LC-MS of supernatant; ratio vs GFP-Nb control (0=captured, 1=not captured). From the text:
(§1) In total, 12 different BC2T libraries displaying all 20 proteinogenic amino acids in one single position of the peptide were used in immunoprecipitation experiments. […] The direct comparison with the GFP-Nb made it possible to determine the quantitative degree of peptide capture without the need of labeled standards. […] The more peptide was captured the more the value approximates 0. It was not possible to discriminate between isoleucine (I) and leucine (L) peptide versions since these peptides are isobaric.
(§2) To investigate the binding specificity of the BC2T and derived mutants peptide libraries for each amino acid position of the sequence […] (SEQ ID NO:4) were synthesized with acetyl and amide groups located at the N-termini or C-termini respectively (Intavis). […] Incubations were performed in 300 μl PBS/0.01% CHAPS for 1 h on a HulaMixer (Life Technologies). Subsequent to a centrifugation step 10 μl supernatant were analyzed in a LC-MS procedure. Peptides were separated using an UltiMate3000 RSLCnano System (Thermo Scientific), composed of a C18 PepMap100μ-Precolumn (300 μm×5 mm; particle size: 5 μm; pore size: 100 Å—Thermo Scientific) and a C18 analytical column (Acclaim Rapid Separation LC (RSLC) Column: 150 mm×5 mm; particle size: 2.2 μm; pore size: 100 Å—Thermo Scientific). A step gradient was applied starting at 8% and ending after 20 min at 30% eluent B (80% acetonitrile, 20% H₂O, 0.1% formic acid).

Test [2] addresses T2, BC2T R3E (human).
T2 construct: position 3 library (BC2TR3X), row E
T2 peptide: Ac-PDEKAAVSHWQQ-NH2
The description is as above.
Text: as §1, §2

Test [3] deals with T3, BC2T D2W (human).
T3 construct: position 2 library, row W
T3 peptide: Ac-PWRKAAVSHWQQ-NH2
The test is described as above.
Text: as §1, §2

For test [4], the target named is T4, BC2T A6N (human).
T4 construct: position 6 library (BC2TA6X), row N
T4 peptide: Ac-PDRKANVSHWQQ-NH2
The description is as above.
Text: as §1, §2

Test [5] has as its target T5, BC2T K4H (human).
T5 construct: position 4 library, row H
T5 peptide: Ac-PDRHAAVSHWQQ-NH2
The description is as above.
Text: as §1, §2

Test [6] addresses T6, BC2T A6W (human).
T6 construct: position 6 library (BC2TA6X), row W
T6 peptide: Ac-PDRKAWVSHWQQ-NH2
Described as above.
Text: as §1, §2

Test [7] has as its target T7, BC2T A5W (human).
T7 construct: position 5 library, row W
T7 peptide: Ac-PDRKWAVSHWQQ-NH2
Described as above.
Text: as §1, §2

Test [8] has as its target T8, BC2T D2C(Abu) (human, SMILES …).
T8 construct: position 2 library, row C(Abu) / C*
T8 peptide: Ac-P[GABA]RKAAVSHWQQ-NH2
The description is as above.
Text: as §1, §2

Test [9] deals with T9, BC2T Q11A.
T9 construct: positional scanning library member
T9 peptide: Ac-PDRKAAVSHWAQ-NH2
Put plainly: positional peptide library pulldown on immobilised Nb, LC-MS of supernatant; signal ratio to control GFP-Nb (1 = not captured, near 0 = captured). An outline of the steps: (§3)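 Unbound peptide left in supernatant after 1 h pulldown in PBS/0.01% CHAPS measured by reversed-phase LC-MS (8–30% eluent B gradient, 20 min).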

The target of test [10] is T10, BC2T W10(I/L1) (N-terminal acetyl; C-terminal amide).
T10 construct: positional scanning library member; I or L not resolved
Described as above. An outline of the steps: as §3

Test [11] deals with T11, BC2T Q11G.
T11 construct: positional scanning library member
T11 peptide: Ac-PDRKAAVSHWGQ-NH2
The description is as above. Summed up:
as §3

Test [12] concerns the target T12, BC2T Q11N.
T12 construct: positional scanning library member
T12 peptide: Ac-PDRKAAVSHWNQ-NH2
The test is described as above. An outline of the steps: as §3

The target of test [13] is T13, BC2T H9Y.
T13 construct: positional scanning library member
T13 peptide: Ac-PDRKAAVSYWQQ-NH2
The test is described as above. An outline of the steps: as §3

Test [14] concerns the target T14, BC2T Q12N.
T14 construct: positional scanning library member
T14 peptide: Ac-PDRKAAVSHWQN-NH2
The description is as above. Summed up:
as §3

Test [15] has as its target T15, BC2T S8W.
T15 construct: positional scanning library member
T15 peptide: Ac-PDRKAAVWHWQQ-NH2
The test is described as above. An outline of the steps:
as §3

Test [16] deals with T16, BC2T Q11K.
T16 construct: positional scanning library member
T16 peptide: Ac-PDRKAAVSHWKQ-NH2
The test is described as above. An outline of the steps:
as §3

In test [17] the target is T17, BC2T Q12W.
T17 construct: positional scanning library member
T17 peptide: Ac-PDRKAAVSHWQW-NH2
The description is as above. An outline of the steps: as §3

Test [18] has as its target T18, BC2T W10H.
T18 construct: positional scanning library member
T18 peptide: Ac-PDRKAAVSHHQQ-NH2
Described as above. An outline of the steps: as §3

Test [19] has as its target T19, BC2T Q11T.
T19 construct: positional scanning library member
T19 peptide: Ac-PDRKAAVSHWTQ-NH2
Described as above. Summed up: as §3

Test [20] has as its target T20, BC2T H9C(Abu) (SMILES …).
T20 construct: positional scanning library member
T20 peptide: Ac-PDRKAAVS[GABA]WQQ-NH2
Described as above. Summed up: as §3

Test [21] addresses T21, BC2T Q12Y.
T21 construct: positional scanning library member
T21 peptide: Ac-PDRKAAVSHWQY-NH2
The test is described as above. Summed up:
as §3

B1: BC2 nanobody (BC2-Nb) (VHH)
VHH: QVQLVESGGGLVQPGGSLTLSCTASGFTLDHYDIGWFRQAPGKEREGVSCINNSDDDTYYADSVKGRFTIFMDNAKDTVYLQMNSLKPEDTAIYYCAEARGCKRGRYEYDFWGQGTQVTVSS
notes: immobilised on agarose/sepharose beads in this assay; also called BC2 nanotrap (immobilised form); not shown: C-terminal 6xHis-tag added by pHEN6 vector
With B1, the ratio in test [1] was determined as 0.7; in [2] it was 1; in test [3], 0.2; in [4] it was 1; in test [5], 0.1; in test [6], 1.1. Further, the ratio in test [7] turned out to be 0; in [8] it was 0.1.

B2: BC2 nanobody (VHH)
VHH: QVQLVESGGGLVQPGGSLTLSCTASGFTLDHYDIGWFRQAPGKEREGVSCINNSDDDTYYADSVKGRFTIFMDNAKDTVYLQMNSLKPEDTAIYYCAEARGCKRGRYEYDFWGQGTQVTVSS
notes: immobilised on beads in this assay; also called BC2-Nb; BC2 nanotrap (immobilised)
B2: the ratio in test [9] was 0.1; in test [10] it was 1; in test [11], 0.1; in test [12], 0.1; in test [13] it was 0.1; in test [14], 0.1. Moreover, the ratio in [15] stood at 0.6; in [16], 0; in test [17], 0.1; in test [18], 1; in [19] it was 0.1; in test [20], 0.2. Moreover, the ratio in [21] came to 0.1.

B3: BC2-NbR106S (VHH)
VHH: QVQLVESGGGLVQPGGSLTLSCTASGFTLDHYDIGWFRQAPGKEREGVSCINNSDDDTYYADSVKGRFTIFMDNAKDTVYLQMNSLKPEDTAIYYCAEARGCKRGSYEYDFWGQGTQVTVSS
notes: headlock mutant of BC2-Nb; immobilised on beads in this assay
In the case of B3, the ratio in test [9] turned out to be 0.4; in test [10] it was 1.1; in test [11], 0.5; in [12] it was 0.3; in test [13], 0.2; in test [14], 0.2. Also, the ratio in test [15] was found to be 0.9; in test [16], 0.1; in test [17] it was 0.3; in test [18] it was 1.1; in [19] it was 0.2; in [20], 0.5. Also, in test [21], the ratio was found to be 0.3.

B4: BC2-NbR106S (VHH)
VHH: QVQLVESGGGLVQPGGSLTLSCTASGFTLDHYDIGWFRQAPGKEREGVSCINNSDDDTYYADSVKGRFTIFMDNAKDTVYLQMNSLKPEDTAIYYCAEARGCKRGSYEYDFWGQGTQVTVSS
notes: immobilised on beads in this assay; not shown: C-terminal 6xHis-tag added by pHEN6 vector
Consider B4, for which the ratio in [1] was found to be 1; in test [2], 1; in [3] it was 0.3; in [4], 1; in [5], 0.3; in test [6] it was 1. The ratio in [7] was determined as 0.1; in [8], 0.3.

The values above are taken from patent US20170137467A1 (CHROMOTEK, published 2017).
